Reference: patent US20030055219A1 (MYRIAD GENETICS, published 2003)

How the values were obtained:
[1] = biological target: T1, C-NAP1 amino acids 250-550 (two-hybrid bait, fused to the Gal4 DNA binding domain) (yeast, UniProt P04386 1-147; Q9BV73 250-550); assay: yeast two-hybrid, bait C-NAP1 AA 250-550, prey AA 1314-1575
T1 construct: range 1-147;range 250-550; Bait was expressed in yeast as a C-terminal fusion to Gal4 DBD 1-147 from vector pGBTQ
Source text: (§1) A total human brain (person) cDNA library cloned into the yeast expression vector pACT2 was purchased from Clontech (human brain […] cDNA, cat. #HL4004AH), transformed into the yeast strain J692 (genotype of this strain: Mat α, ade2, his3, leu2, trp1, URA3::GAL1-lacZ LYS2::GAL1-HIS3 gal4del ga18Odel cyhR2), and selected for the ability to drive leucine synthesis. In these yeast cells, each cDNA is expressed as a fusion protein with the transcription activation domain of the transcription factor Gal4 (amino acids 768 to 881) and a 9 amino acid hemagglutinin epitope tag. J693 cells (Mat a type) expressing the bait were then mated with J692 cells […] expressing proteins from the brain library. The resulting diploid yeast cells expressing proteins interacting with the bait protein were selected for the ability to synthesize tryptophan, leucine, histidine, and β-galactosidase. DNA was prepared from each clone, transformed by electroporation into E. coli strain KC8 (Clontech KC8 electrocompetent cells, cat. #C2023-1), and the cells were selected on ampicillin-containing plates in the absence of either tryptophane (selection for the bait plasmid) or leucine (selection for the brain library plasmid). DNA for both plasmids was prepared and sequenced by di-deoxynucleotide chain termination method. […]

[2] = biological target: T2, C-NAP1 amino acids 1000-1300 (two-hybrid bait, fused to the Gal4 DNA binding domain) (yeast, UniProt P04386 1-147; Q9BV73 1000-1300); assay: yeast two-hybrid, bait C-NAP1 AA 1000-1300, prey AA 184-246
T2 construct: range 1-147;range 1000-1300; Bait was expressed in yeast as a C-terminal fusion to Gal4 DBD 1-147 from vector pGBTQ
Source text: as §1

[3] = biological target: T3, C-NAP1 amino acids 1-300 (two-hybrid bait, fused to the Gal4 DNA binding domain) (yeast, UniProt P04386 1-147; Q9BV73 1-300); assay: yeast two-hybrid, bait C-NAP1 AA 1-300, prey AA 2-76
T3 construct: range 1-147;range 1-300; Bait cDNA was made by PCR from brain cDNA; It was expressed in yeast as a C-terminal fusion to Gal4 DBD 1-147 from vector pGBTQ
Source text: as §1

[4] = biological target: T2, C-NAP1 amino acids 1000-1300 …; assay: yeast two-hybrid, bait C-NAP1 AA 1000-1300, prey AA 7-283
Source text: as §1

[5] = biological target: T2, C-NAP1 amino acids 1000-1300 …; assay: yeast two-hybrid, C-NAP1 fragment as Gal4 DBD bait, human brain library prey
Source text: In these yeast cells, the bait is produced as a C-terminal fusion protein with the DNA binding domain of the transcription factor Gal4 (amino acids 1 to 147). A total human brain (person) cDNA library cloned into the yeast expression vector pACT2 was purchased from Clontech (human brain […] cDNA, cat. #HL4004AH), transformed into the yeast strain J692 (genotype of this strain: Mat α, ade2, his3, leu2, trp1, URA3::GAL1-lacZ LYS2::GAL1-HIS3 gal4del ga18Odel cyhR2), and selected for the ability to drive leucine synthesis. In these yeast cells, each cDNA is expressed as a fusion protein with the transcription activation domain of the transcription factor Gal4 (amino acids 768 to 881) and a 9 amino acid hemagglutinin epitope tag. J693 cells (Mat a type) expressing the bait were then mated with J692 cells (Mat a type) expressing proteins from the brain library. The resulting diploid yeast cells expressing proteins interacting with the bait protein were selected for the ability to synthesize tryptophan, leucine, histidine, and β-galactosidase. DNA was prepared from each clone, transformed by electroporation into E. coli strain KC8 (Clontech KC8 electrocompetent cells, cat. #C2023-1), and the cells were selected on ampicillin-containing plates in the absence of either tryptophane (selection for the bait plasmid) or leucine (selection for the brain library plasmid). […]

B1: IQGAP2 amino acids 1314-1575 (two-hybrid prey clone, fused to the Gal4 activation domain) (other, yeast;human, UniProt P04386 768-881, looked up, not shown: small tags and cut ends)
chain: ANFNQSGNIADSSLSFTFTNSSNGPNLITTQTNSQALSQPIASSNVHDNFMNNEITASKIDDGNNSKPLSPGWTDQTAYNAFGITTGMFNTTTMDDVYNYLFDDEDTPPNPKKEQPGNTLTEILETPATAQQEVDHATDMVSRAMIDSRTPEEMKHSQSMIEDAQLPLEQKKRKIQRNLRTLEQTGHVSSENKYQDILNEIAKDIRNQRIYRKLRKAELAKLQQTLNALNKKAAFYEEQINYYDTYIKTCLDNLKRKNTRRSIKLDGKGEPKGAKRAKPVKYTAAKLHEKGVLLDIDDLQTNQFKNVTFDIIATEDVGIFDVRSKFLGVEMEKVQLNIQDLLQMQYEGVAVMKMFDKVKVNVNLLIYLLNKKFYGK
B1: binds [1].

B2: BAP31 amino acids 184-246 (two-hybrid prey clone, fused to the Gal4 activation domain) (other, yeast;human, UniProt P04386 768-881, looked up, not shown: small tags and cut ends)
chain: ANFNQSGNIADSSLSFTFTNSSNGPNLITTQTNSQALSQPIASSNVHDNFMNNEITASKIDDGNNSKPLSPGWTDQTAYNAFGITTGMFNTTTMDDVYNYLFDDEDTPPNPKKELKADLQKLKDELASTKQKLEKAENQVLAMRKQSEGLTKEYDRLLEEHAKLQAAVDGPMDKKEE
notes: range 768-881;range 184-246; The printed GenBank number 'U5211' looks truncated
B2: binds [2].

B3: HSBP1 amino acids 2-76 (two-hybrid prey clone, fused to the Gal4 activation domain) (other, yeast;human, UniProt P04386 768-881, looked up, not shown: small tags and cut ends)
chain: ANFNQSGNIADSSLSFTFTNSSNGPNLITTQTNSQALSQPIASSNVHDNFMNNEITASKIDDGNNSKPLSPGWTDQTAYNAFGITTGMFNTTTMDDVYNYLFDDEDTPPNPKKEAETDPKTVQDLTSVVQTLLQQMQDKFQTMSDQIIGRIDDMSSRIDDLEKNIADLMTQAGVEELESENKIPATQKS
notes: range 768-881;range 2-76
B3: binds [3].

B4: KIAA0174 amino acids 7-283 (two-hybrid prey clone, fused to the Gal4 activation domain) (other, yeast;human, UniProt P04386 768-881, looked up, not shown: small tags and cut ends)
chain: ANFNQSGNIADSSLSFTFTNSSNGPNLITTQTNSQALSQPIASSNVHDNFMNNEITASKIDDGNNSKPLSPGWTDQTAYNAFGITTGMFNTTTMDDVYNYLFDDEDTPPNPKKEKAERLRVNLRLVINRLKLLEKKKTELAQKARKEIADYLAAGKDERARIRVEHIIREDYLVEAMEILELYCDLLLARFGLIQSMKELDSGLAESVSTLIWAAPRLQSEVAELKIVADQLCAKYSKEYGKLCRTNQIGTVNDRLMHKLSVEAPPKILVERYLIEIAKNYNVPYEPDSVVMAEAPPGVETDLIDVGFTDDVKKGGPGRGGSGGFTAPVGGPDGTVPMPMPMPMPSANTPFSYPLPKGPSDFNGLPMGTYQAFPNIHPPQIPATPPSYESV
notes: range 768-881;range 7-283
B4: binds [4].

B5: FIP-2 amino acids 302-577 (two-hybrid prey clone, fused to the Gal4 activation domain) (other, yeast;human, UniProt P04386 768-881, looked up, not shown: small tags and cut ends)
chain: ANFNQSGNIADSSLSFTFTNSSNGPNLITTQTNSQALSQPIASSNVHDNFMNNEITASKIDDGNNSKPLSPGWTDQTAYNAFGITTGMFNTTTMDDVYNYLFDDEDTPPNPKKELNLQVTSLFKELQEAHTKLSEAELMKKRLQEKCQALERKNSAIPSELNEKQELVYTNKKLELQVESMLSEIKMEQAKTEDEKSKLTVLQMTHNKLLQEHNNALKTIEELTRKESEKVDRAVLKELSEKLELAEKALASKQLQMDEMKQTIAKQEEDLETMTILRAQMEVYCSDFHAERAAREKIHEEKEQLALQLAVLLKENDAFEDGGRQSLMEMQSRHGARTSDSDQQAYLVQRGAEDRDWRQQRNIPIHSCPKCGEVLPDIDTLQIHVMDCII
notes: Prey came from the Clontech human brain library in pACT2; The clone 'included' these residues
B5: binds [5].
